Earlier results as cited in patent publication US20130252257A1, “QUANTIFICATION OF CIRCULATING STEM AND PROGENITOR CELLS AS A MEANS OF ASSESSING EFFICACY OF NATUROPATHIC INTERVENTIONS” (Creative Medical Health, Inc., priority 2011, published 2013).
Like-named read-outs stand apart in the source and are kept apart here.

Tests used:
[1] = system: circulating EPC; settings: in vivo
[2] = system: endothelial responsiveness
[3] = system: endothelial progenitor cells (EPC); settings: in addition to mobilizing HSC
[4] = system: large anterior wall AMI; settings: 41 patients with large anterior wall AMI
[5] = system: ST-elevation myocardial infarction; settings: 6 days of G-CSF at 10 μg/kg
[6] = system: myocardial infarct; settings: 114 patients, 56 treated and 58 control

For `CC(C)c1nc(N(C)S(C)(=O)=O)nc(-c2ccc(F)cc2)c1/C=C/[C@@H](O)C[C@@H](O)CC(=O)O` [Crestor], the “circulating EPC levels” value [1] is given as “increase circulating EPC levels”.

In the case of “growth hormone: growth hormone, used in antiaging medicine; clinically-applicable mobilizer”, the endothelial responsiveness ([2]; healthy volunteers) is listed as “improve endothelial responsiveness” and the endothelial responsiveness ([2]; patients with congestive heart failure) is listed as “improve endothelial responsiveness”.

B1: G-CSF: Granulocyte colony stimulating factor, used clinically for mobilization of hematopoietic stem cells (protein, UniProt P09919 31-207, looked up)
Granulocyte …: TPLGPASSLPQSFLLKCLEQVRKIQGDGAALQEKLVSECATYKLCHPEELVLLGHSLGIPWAPLSSCPSQALQLAGCLSQLHSGLFLYQGLLQALEGISPELGPTLDTLQLDVADFATTIWQQMEELGMAPALQPTQGAMPAFASAFQRRAGGVLVASHLQSFLEVSYRVLRHLAQP
In the case of B1, the “mobilization of EPC” value [3] is given as “stimulates mobilization of EPC”, the “left ventricle ejection fraction (LVEF)” value [4] is given as “improvement” and the pathological remodeling [4] is given as “diminished pathological remodeling”. For the same molecule, the ejection fraction ([5]; in comparison to controls) was “Statistically significant improvements”, the pathological remodeling ([5]; in comparison to controls) was “inhibition of pathological remodeling” and the “myocardial wall at the area of infarct” value ([5]; four months after infarct, versus controls, sustained over a year) was “thicker myocardial wall”. The “infarct size, left ventricular function, or coronary restenosis” value [6] was “no influence”.
